Publication PMC6277223 (Neoplasia (New York, N.Y.), 2018)

Target: His-SIRT6 (UniProt Q8N6T7 1-355)
Assay: pull-down

Chain of His-SIRT6 (Q8N6T7 whole entry): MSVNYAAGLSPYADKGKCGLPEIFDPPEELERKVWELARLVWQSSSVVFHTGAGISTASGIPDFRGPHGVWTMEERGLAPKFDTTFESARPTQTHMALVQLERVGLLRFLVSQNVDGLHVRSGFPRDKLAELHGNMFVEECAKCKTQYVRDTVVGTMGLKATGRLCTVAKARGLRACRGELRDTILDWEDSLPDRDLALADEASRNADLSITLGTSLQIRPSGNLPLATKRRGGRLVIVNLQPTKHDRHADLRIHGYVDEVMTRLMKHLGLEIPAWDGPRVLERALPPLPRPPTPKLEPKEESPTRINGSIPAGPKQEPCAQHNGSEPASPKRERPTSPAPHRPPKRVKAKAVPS

B1: GST-PKCζ N-terminus (1-251 aa) (domain or fragment, UniProt Q05513 1-251, looked up)
chain: MPSRTGPKMEGSGGRVRLKAHYGGDIFITSVDAATTFEELCEEVRDMCRLHQQHPLTLKWVDSEGDPCTVSSQMELEEAFRLARQCRDEGLIIHVFPSTPEQPGLPCPGEDKSIYRRGARRWRKLYRANGHLFQAKRFNRRAYCGQCSERIWGLARQGYRCINCKLLVHKRCHGLVPLTCRKHMDSVMPSQEPPVDDKNEDADLPSEETDGIAYISSSRKHDSIKDDSEDLKPVIDGMDGIKISQGLGLQD
binding result: binds
